What was measured:
Apiosporin = experiment: Immunoprecipitation of Apiosporin from fungal extract by sdAbs with mass spec identification; assay type: binding, Apiospora arundinis; conditions: Protein A SpinTrap
Description: 50 μl of the partial pure sdAbs prepared in example 9 and 150 μl fungal extract (resuspended in PBS with 500 mM NaCl and 0.2% Tween20) were incubated overnight at 4° C. The mixed sdAb and fungal extract were purified on a SpinTrap Protein A from Cytivia accoridng to manufactures instructions except that the elution was performed into 50% AcN 5% formic acid.
The same immune precipitations were analysed by HPLC-DAD-HRMS using a Hitachi Elite LaChrom HPLC system, equipped with a phenyl-hexyl 100 Å (150×4.6 mm Kinetex 5 μm, Phenomenex) column kept at 40° C. and coupled by a 5:95 flow splitter to a high-resolution mass spectrometer (compact qTOF, Bruker) with an electrospray source (Capilary: 4500 V; end plate offset 500 V; Dry gas 4.0 L/min, 200° C.) operated in positive mode. The injection volume was set to 30 μL and separated using a 1.2 mL/min gradient initiating at 10% solvent A (acetonitrile (HiPerSolv CHROMANORM, VWR) with 0.1% v/v formic acid (MS-grade 98%, Sigma-Aldrich)) in 90% solvent B (water (HiPerSolv CHROMANORM, VWR) with 0.1% v/v formic acid (MS-grade 98%, Sigma-Aldrich)), increasing linearly to 100% solvent A over 17 minutes and held for 6 minutes. After 0.5 minutes from sample injection, 2 μL calibrant (10 mM NaOH and 26 mM formic acid (MS-grade 98%, Sigma-Aldrich) in 1:1 water (HiPerSolv CHROMANORM, VWR): isopropanol) was injected directly to the mass analyser and used for internal spectra calibration. Mass spectrometric instrument control, data recording and data processing was performed using Compass DataAnalysis 4.2 SR2 (Bruker).

[1] = tested on: Apiosporin from a lysate of Apiospora arundinis (Isolate AAU773); experiment: Octet measurement of sdAbs capturing Apiosporin from fungal lysate; assay type: binding
Description: The Aim was to establish that selected antibody fragments could capture their target antigen Apiosporin from a lysate of WT Apiospora arundinis (Isolate AAU773), whereas no antigen would be bound specifically to the antibody fragments when KO Apiospora arundinis were applied in the binding assay.
The sdAbs produced as in example 9 were applied to amine reactive biosensors from Sartorius for the Octet instrument. First the reagents were prepared according to the AR2G kit instructions. For a standard immobilization scouting assay 200 μL/well of water was added to column 1 of a 96-well plate. The 200 μL/well 1 M ethanolamine pH 8.5 were added to column 4. 200 μL/well assay running buffer into column 5. Here the provided Kinetics Buffer (dilute the 10× Kinetics Buffer 10-fold in PBS) was used. 200 μL/well of the sdAbs were added to column 6 at a concentration of 500 nM. The sdAbs were prepared to be immobilized. Protein was prepared in each of the 10 mM acetate buffers at pH 4, 5 and 6. A starting ligand concentration of at least 20 μg/mL is recommended. The ligand concentration may be decreased as low as 5 μg/mL if the immobilization time is extended; some performance loss is expected at lower ligand concentrations. Prepare 500 μL at each pH.
As Apiosporin is present in an unknown concentration in the crude extracts, it is not possible to estimate a Kd from the sensorgram. Also, it is not possible to fit the raw data to a nice binding curve when a ligand concentration is not known. However, in order to allow fitting a concentration of 100 nM and 10 nM (resulting in almost identical fitting curves) of Apiosporin were inserted. The same fitting settings were used for all (data correction aligning to the association step with baseline correction to dissociation, Savitzky-Golay filtering to smoothen the curves, 1:1 model graph fitting to association and dissociation separately). […] It thus establishes that there is a normal association/dissociation between Apiosporin and sdAbs for the WT, but no association/dissociation for the KO as expected. Thus, it is seen that the antibodies are specific against the compound produced from the NRPS.

[2] = tested on: Apiospora arundinis (Isolate AAU773); experiment: Immunofluorescent staining of Apiospora arundinis with sdAbs; assay type: cell-based; conditions: primary sdAb 70 nM, ALFA tag secondary (Alexa 647)
Description: Apiospora arundinis (Isolate AAU773) were grown in liquid culture and spotted on glass cover slips where they were immobilized using tape. The fungi were fixed by addition of 3.7% paraformaldehyde for 10 min. Then blocking with 5% skim milk in PBS before staining with the primary sdAbs (70 nM) overnight, secondary antibody (ALFA sdAb-FluoTag-X2 from Synaptic Systems, the antibody was labelled with Alexa flour 647 and used at a dilution of 1:500 for 3 h, washing 3×5 min with PBS, then staining for 2 min with calcofluor white stain (calcofluor white 1 g/l, evans blue 0.5 g/l), then wash 1×5 min with PBS.

[3] = WT fungal extract, 1:1 model fit, Apiosporin concentration assumed 100 nM

B1: AP2: single domain antibody (sdAb) selected against Apiosporin, SEQ ID NO: 11 (protein)
VHH: EVQLLESGGGLVQPGGSLRLSCAASGFRDSDEDMGWVRQAPGKGLEWVSSIETPDGSTYYADSVKGRFTISRDNSKNTLYLQMNSLRAEDTAVYYCASQPVYSYHFDYWGQGTLVTVSSAAA
Immunoprecipitation of Apiosporin, identified by mass spec (Apiosporin): identification of Apiosporin after immunoprecipitation
Association/dissociation (binding to ligand) on Octet ([1]; KO fungal extract): absent in the KO
Association/dissociation (binding to ligand) on Octet [1, 3]: binding to a ligand present in the WT extracts

B2: AP7: single domain antibody (sdAb) selected against Apiosporin, SEQ ID NO: 31 (protein)
VHH: EVQLLESGGGLVQPGGSLRLSCAASGFRDSDEDMGWVRQAPGKGLEWVSSIEGPSGSTYYADSVKGRFTISRDNSKNTLYLQMNSLRAEDTAVYYCASVTWWTHPFDYWGQGTLVTVSSAAA
Immunoprecipitation of Apiosporin, identified by mass spec (Apiosporin): identification of Apiosporin after immunoprecipitation

B3: AP1: single domain antibody (sdAb) selected against Apiosporin, SEQ ID NO: 6 (protein)
VHH: EVQLLESGGGLVQPGGSLRLSCAASGFRDSDEDMGWVRQAPGKGLEWVSSIYSYNGSTYYADSVKGRFTISRDNSKNTLYLQMNSLRAEDTAVYYCASDRGGYNSFDYWGQGTLVTVSSAAA
Immunoprecipitation of Apiosporin, identified by mass spec (Apiosporin): identification of Apiosporin after immunoprecipitation
Association/dissociation (binding to ligand) on Octet ([1]; KO fungal extract): absent in the KO
Association/dissociation (binding to ligand) on Octet [1, 3]: binding to a ligand present in the WT extracts
Immunofluorescent staining of septa ([2]; KO fungi): No clearly staining in septa
Immunofluorescent staining of septa ([2]; WT fungi): Staining is clearly shown in septa between two hyphae

B4: AP3: single domain antibody (sdAb) selected against Apiosporin, SEQ ID NO: 16 (protein)
VHH: EVQLLESGGGLVQPGGSLRLSCAASGFRDSDEDMGWVRQAPGKGLEWVSSIGGYNGSTYYADSVKGRFTISRDNSKNTLYLQMNSLRAEDTAVYYCASEGYYTSAFDYWGQGTLVTVSSAAA
Association/dissociation (binding to ligand) on Octet ([1]; KO fungal extract): absent in the KO
Association/dissociation (binding to ligand) on Octet [1, 3]: binding to a ligand present in the WT extracts

B5: AP4: single domain antibody (sdAb) selected against Apiosporin, SEQ ID NO: 21 (protein)
VHH: EVQLLESGGGLVQPGGSLRLSCAASGFRDSDEDMGWVRQAPGKGLEWVSSIDAEDGSTYYADSVKGRFTISRDNSKNTLYLQMNSLRAEDTAVYYCASDSGDWFSFDYWGQGTLVTVSSAAA
Association/dissociation (binding to ligand) on Octet ([1]; KO fungal extract): absent in the KO
Association/dissociation (binding to ligand) on Octet [1, 3]: binding to a ligand present in the WT extracts

— patent US20260242430A1, “NOVEL FUNGAL DERIVED COMPOUNDS” (Aalborg Universitet, priority 2023, published 2026)
